{
  "source": "paper PMC10281526",
  "about": "“Polydom/SVEP1 binds to Tie1 and promotes migration of lymphatic endothelial cells” (The Journal of Cell Biology, 2023)",
  "molecules": {"B1": {"name": "recombinant Tie1 extracellular domain, Fc fusion protein (Fc fusion, UniProt P35590 22-759, looked up)", "chain": "AVDLTLLANLRLTDPQRFFLTCVSGEAGAGRGSDAWGPPLLLEKDDRIVRTPPGPPLRLARNGSHQVTLRGFSKPSDLVGVFSCVGGAGARRTRVIYVHNSPGAHLLPDKVTHTVNKGDTAVLSARVHKEKQTDVIWKSNGSYFYTLDWHEAQDGRFLLQLPNVQPPSSGIYSATYLEASPLGSAFFRLIVRGCGAGRWGPGCTKECPGCLHGGVCHDHDGECVCPPGFTGTRCEQACREGRFGQSCQEQCPGISGCRGLTFCLPDPYGCSCGSGWRGSQCQEACAPGHFGADCRLQCQCQNGGTCDRFSGCVCPSGWHGVHCEKSDRIPQILNMASELEFNLETMPRINCAAAGNPFPVRGSIELRKPDGTVLLSTKAIVEPEKTTAEFEVPRLVLADSGFWECRVSTSGGQDSRRFKVNVKVPPVPLAAPRLLTKQSRQLVVSPLVSFSGDGPISTVRLHYRPQDSTMDWSTIVVDPSENVTLMNLRPKTGYSVRVQLSRPGEGGEGAWGPPTLMTTDCPEPLLQPWLEGWHVEGTDRLRVSWSLPLVPGPLVGDGFLLRLWDGTRGQERRENVSSPQARTALLTGLTPGTHYQLDVQLYHCTLLGPASPPAHVLLPPSGPPAPRHLHAQALSDSEIQLTWKHPEALPGPISKYVVEVQVAGGAGDPLWIDVDRPEETSTIIRGLNASTRYLFRMRASIQGLGDWSNTVEESTLGNGLQAEGPVQESRAAEEGLDQ", "notes": "Tie1, extracellular domain, expressed as Fc fusion protein; The Fc tag was detected with an anti-human IgG antibody; also called Tie1 with an Fc tag; source: bought: R&D Systems"}, "B2": {"name": "SVEP1 (protein)", "chain": "DAIHCSDPQPIENGFVEGADYRYGAMIIYSCFPGFQVLGHAMQTCEESGWSSSSPTCVPID"}},
  "key": {"[1]": {"biological_target": "recombinant Tie1 extracellular domain, Fc fusion protein (UniProt P35590)"}, "[2]": {"biological_target": "T1, recombinant full-length mouse Polydom (mouse, UniProt A2AVA0 18-3567)", "T1 construct": "Polydom (SVEP1), mouse, full length; expression vector as in Sato-Nishiuchi et al., 2012; The construct is described in Sato-Nishiuchi et al., 2012; also called SVEP1; full-length Polydom", "T1 sequence (A2AVA0 18-3567)": "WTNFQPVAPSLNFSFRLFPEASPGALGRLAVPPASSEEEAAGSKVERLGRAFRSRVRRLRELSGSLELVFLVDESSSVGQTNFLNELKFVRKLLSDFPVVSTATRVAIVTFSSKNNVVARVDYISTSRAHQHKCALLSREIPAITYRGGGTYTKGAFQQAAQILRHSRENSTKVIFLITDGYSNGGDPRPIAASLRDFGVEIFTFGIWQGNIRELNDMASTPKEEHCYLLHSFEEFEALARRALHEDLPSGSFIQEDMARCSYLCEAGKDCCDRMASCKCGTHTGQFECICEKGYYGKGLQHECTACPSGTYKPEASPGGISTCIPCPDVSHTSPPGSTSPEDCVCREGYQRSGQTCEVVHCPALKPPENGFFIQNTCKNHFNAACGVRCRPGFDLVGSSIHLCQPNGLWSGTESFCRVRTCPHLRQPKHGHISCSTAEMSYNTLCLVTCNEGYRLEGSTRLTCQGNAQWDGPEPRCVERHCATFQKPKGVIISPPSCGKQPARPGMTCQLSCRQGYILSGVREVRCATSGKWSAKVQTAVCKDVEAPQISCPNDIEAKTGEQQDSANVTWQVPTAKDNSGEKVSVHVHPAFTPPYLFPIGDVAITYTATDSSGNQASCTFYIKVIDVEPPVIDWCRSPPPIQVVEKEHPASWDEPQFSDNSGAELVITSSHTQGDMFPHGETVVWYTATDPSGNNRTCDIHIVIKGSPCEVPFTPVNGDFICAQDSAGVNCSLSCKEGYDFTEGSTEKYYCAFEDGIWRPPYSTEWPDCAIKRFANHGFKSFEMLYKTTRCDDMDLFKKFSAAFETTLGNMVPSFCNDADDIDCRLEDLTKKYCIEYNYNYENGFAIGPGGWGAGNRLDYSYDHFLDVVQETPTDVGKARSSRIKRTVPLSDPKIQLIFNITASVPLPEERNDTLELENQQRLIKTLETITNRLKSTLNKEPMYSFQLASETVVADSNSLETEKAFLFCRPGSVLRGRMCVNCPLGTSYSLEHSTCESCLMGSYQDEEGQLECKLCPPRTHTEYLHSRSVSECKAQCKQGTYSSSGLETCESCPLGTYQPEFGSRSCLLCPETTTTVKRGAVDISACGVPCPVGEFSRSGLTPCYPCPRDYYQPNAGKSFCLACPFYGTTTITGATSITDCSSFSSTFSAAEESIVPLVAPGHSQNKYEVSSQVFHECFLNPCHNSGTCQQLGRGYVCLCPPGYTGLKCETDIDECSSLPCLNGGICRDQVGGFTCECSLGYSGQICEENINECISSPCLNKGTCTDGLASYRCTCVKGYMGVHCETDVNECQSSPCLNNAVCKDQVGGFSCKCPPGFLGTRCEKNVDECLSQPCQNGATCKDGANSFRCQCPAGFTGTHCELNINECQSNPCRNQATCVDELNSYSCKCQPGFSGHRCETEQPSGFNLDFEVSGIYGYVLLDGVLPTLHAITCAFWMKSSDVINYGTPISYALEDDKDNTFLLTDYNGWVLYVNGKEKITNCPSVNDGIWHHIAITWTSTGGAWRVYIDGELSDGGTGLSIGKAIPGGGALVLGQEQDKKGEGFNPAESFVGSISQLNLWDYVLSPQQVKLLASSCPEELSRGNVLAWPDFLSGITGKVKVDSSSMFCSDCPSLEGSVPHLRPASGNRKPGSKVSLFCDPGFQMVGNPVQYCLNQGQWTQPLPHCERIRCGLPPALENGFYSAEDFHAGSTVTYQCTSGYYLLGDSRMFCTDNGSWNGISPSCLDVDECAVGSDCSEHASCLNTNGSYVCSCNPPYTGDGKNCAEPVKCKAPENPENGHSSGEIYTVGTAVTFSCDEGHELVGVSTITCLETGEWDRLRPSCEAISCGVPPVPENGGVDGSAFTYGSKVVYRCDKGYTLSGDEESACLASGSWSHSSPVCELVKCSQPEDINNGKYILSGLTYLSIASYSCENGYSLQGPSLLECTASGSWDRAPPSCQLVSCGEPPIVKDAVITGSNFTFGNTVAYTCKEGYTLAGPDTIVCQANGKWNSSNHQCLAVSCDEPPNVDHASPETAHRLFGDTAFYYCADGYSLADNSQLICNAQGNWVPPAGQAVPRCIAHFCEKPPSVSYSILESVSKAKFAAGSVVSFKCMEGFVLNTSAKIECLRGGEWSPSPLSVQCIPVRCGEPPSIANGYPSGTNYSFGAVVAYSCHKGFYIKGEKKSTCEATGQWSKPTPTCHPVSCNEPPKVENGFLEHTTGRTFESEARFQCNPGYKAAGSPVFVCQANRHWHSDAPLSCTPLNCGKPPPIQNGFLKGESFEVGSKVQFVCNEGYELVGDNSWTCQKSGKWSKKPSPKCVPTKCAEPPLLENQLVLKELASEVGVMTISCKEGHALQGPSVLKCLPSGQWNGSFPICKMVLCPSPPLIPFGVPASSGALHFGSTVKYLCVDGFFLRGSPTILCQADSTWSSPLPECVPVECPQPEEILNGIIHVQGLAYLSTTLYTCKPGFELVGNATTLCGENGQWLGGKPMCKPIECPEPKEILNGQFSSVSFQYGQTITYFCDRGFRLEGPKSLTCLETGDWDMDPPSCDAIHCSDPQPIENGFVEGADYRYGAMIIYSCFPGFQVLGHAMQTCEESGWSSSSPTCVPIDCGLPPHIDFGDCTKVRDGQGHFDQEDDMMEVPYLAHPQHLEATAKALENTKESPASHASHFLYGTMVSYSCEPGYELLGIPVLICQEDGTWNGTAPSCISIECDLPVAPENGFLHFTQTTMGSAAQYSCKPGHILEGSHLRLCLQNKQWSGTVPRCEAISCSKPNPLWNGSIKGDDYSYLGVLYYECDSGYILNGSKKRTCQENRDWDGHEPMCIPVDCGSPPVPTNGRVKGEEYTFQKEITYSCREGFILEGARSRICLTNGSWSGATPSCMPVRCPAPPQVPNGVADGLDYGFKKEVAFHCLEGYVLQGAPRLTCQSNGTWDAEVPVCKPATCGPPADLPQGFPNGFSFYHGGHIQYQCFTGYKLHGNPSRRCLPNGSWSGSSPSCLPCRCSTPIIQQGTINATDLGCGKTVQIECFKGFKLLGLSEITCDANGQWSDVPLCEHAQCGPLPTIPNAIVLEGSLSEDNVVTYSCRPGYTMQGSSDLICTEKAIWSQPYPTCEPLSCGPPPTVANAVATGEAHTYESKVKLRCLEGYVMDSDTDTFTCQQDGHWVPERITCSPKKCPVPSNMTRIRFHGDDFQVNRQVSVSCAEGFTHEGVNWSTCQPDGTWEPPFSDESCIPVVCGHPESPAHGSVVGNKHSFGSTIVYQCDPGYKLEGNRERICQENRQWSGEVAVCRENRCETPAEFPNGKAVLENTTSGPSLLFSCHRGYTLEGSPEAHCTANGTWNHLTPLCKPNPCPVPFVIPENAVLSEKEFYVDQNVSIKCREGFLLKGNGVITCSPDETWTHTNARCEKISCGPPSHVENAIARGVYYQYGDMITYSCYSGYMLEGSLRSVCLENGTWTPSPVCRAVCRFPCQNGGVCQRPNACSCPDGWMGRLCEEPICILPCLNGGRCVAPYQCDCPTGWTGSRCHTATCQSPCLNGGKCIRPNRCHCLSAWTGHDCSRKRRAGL", "test": "ELISA; reverse solid-phase binding assay, titration: full-length Polydom coated (10 nM by the legend), serially diluted Tie1-Fc or Tie2-Fc in solution, detected with HRP anti-human IgG against the Fc tag; apparent dissociation constant", "settings": "both partners purified"}, "Tie2": {"biological_target": "T2, Tie2 (Homo sapiens (Human), UniProt Q02763)", "T2 chain": "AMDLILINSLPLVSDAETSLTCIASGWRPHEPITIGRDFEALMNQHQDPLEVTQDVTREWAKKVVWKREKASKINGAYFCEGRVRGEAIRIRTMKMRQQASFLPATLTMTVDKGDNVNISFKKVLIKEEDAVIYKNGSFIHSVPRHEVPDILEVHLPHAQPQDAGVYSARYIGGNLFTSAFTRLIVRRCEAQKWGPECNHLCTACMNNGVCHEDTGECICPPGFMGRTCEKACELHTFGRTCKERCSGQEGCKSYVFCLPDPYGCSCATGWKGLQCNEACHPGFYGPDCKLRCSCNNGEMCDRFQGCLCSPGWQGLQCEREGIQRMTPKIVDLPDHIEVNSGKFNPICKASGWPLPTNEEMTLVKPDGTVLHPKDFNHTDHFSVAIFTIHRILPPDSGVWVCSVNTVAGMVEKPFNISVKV", "test": "solid-phase ELISA, Tie-Fc dimers on coated SVEP1"}},
  "data": [
    {"molecule": "full-length Polydom E2567A mutant, A2AVA0 18-3567", "values": [
      {"measurement": "Transwell migration of human dermal LECs toward Polydom/E2567A (1 μg/ml) in the lower chamber, reduction compared with control Polydom", "setting": "[1]", "result": 80, "unit": "%"}
    ]},
    {"molecule": "B1", "values": [
      {"measurement": "Kd", "setting": "[2]", "result": "43 ± 4", "unit": "nM"}
    ]},
    {"molecule": "B2", "values": [
      {"measurement": "Kd", "setting": "Tie2", "result": "> 500", "unit": "nM"}
    ]}
  ]
}
